T1: TgENO1 (bradyzoite enolase 1) (Toxoplasma gondii, UniProt B9PH47 1-444)
T1 sequence: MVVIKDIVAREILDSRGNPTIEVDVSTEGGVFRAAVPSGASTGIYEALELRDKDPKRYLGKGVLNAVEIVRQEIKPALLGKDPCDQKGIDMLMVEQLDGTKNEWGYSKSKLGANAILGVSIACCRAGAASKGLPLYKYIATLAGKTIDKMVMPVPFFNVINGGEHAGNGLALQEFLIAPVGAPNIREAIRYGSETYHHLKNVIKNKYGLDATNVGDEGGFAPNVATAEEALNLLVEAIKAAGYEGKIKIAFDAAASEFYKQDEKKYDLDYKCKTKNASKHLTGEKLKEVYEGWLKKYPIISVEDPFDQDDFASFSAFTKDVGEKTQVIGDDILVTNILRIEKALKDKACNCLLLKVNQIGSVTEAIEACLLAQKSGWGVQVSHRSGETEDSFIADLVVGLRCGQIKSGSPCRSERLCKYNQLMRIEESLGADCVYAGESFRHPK

B1: TgMAG1 probe (TTTTCT motif) (dsDNA)
DNA 1: TTTTCTTCTCAAGA
DNA 2: TCTTGAGAAGAAAA
B2: probe B (c-Myc promoter TATA box) (dsDNA)
DNA 1: ATATAAAATCCGTA
DNA 2: TACGGATTTTATAT
B3: probe C (random negative control) (dsDNA)
DNA 1: TTCTCCTGTGTCAT
DNA 2: ATGACACAGGAGAA

The data set has as its target T1, TgENO1 (bradyzoite enolase 1). The experiment in a line: EMSA; EMSA with Thermo Scientific band-shift kit per manufacturer; buffer, salt, pH and temperature not stated (protein stock 10 mM Tris-HCl pH 8.3, 500 mM NaCl, 5 mM beta-mercaptoethanol). The note with it: protein: recombinant; tags: N-terminal His-TEV (pCCK-N'-HisTEV vector). (In general: A gel shift assay detects complexes by their altered migration in electrophoresis.)
On to B1, for which the binding result is reported as “binds”. Next, B2: “no binding”; B3: “no binding”.
